B1: Mcm3 (Flag-tagged subunit of Mcm2-7) (natural protein, S. cerevisiae, UniProt P24279 1-971, looked up)
chain: MEGSTGFDGDATTFFAPDAVFGDRVRRFQEFLDTFTSYRDSVRSIQVYNSNNAANYNDDQDDADERDLLGDDDGDDLEKEKKAASSTSLNILPHRIIISLDDLREFDRSFWSGILVEPAYFIPPAEKALTDLADSMDDVPHPNASAVSSRHPWKLSFKGSFGAHALSPRTLTAQHLNKLVSVEGIVTKTSLVRPKLIRSVHYAAKTGRFHYRDYTDATTTLTTRIPTPAIYPTEDTEGNKLTTEYGYSTFIDHQRITVQEMPEMAPAGQLPRSIDVILDDDLVDKTKPGDRVNVVGVFKSLGAGGMNQSNSNTLIGFKTLILGNTVYPLHARSTGVAARQMLTDFDIRNINKLSKKKDIFDILSQSLAPSIYGHDHIKKAILLMLMGGVEKNLENGSHLRGDINILMVGDPSTAKSQLLRFVLNTASLAIATTGRGSSGVGLTAAVTTDRETGERRLEAGAMVLADRGVVCIDEFDKMTDVDRVAIHEVMEQQTVTIAKAGIHTTLNARCSVIAAANPVFGQYDVNRDPHQNIALPDSLLSRFDLLFVVTDDINEIRDRSISEHVLRTHRYLPPGYLEGEPVRERLNLSLAVGEDADINPEEHSNSGAGVENEGEDDEDHVFEKFNPLLQAGAKLAKNKGNYNGTEIPKLVTIPFLRKYVQYAKERVIPQLTQEAINVIVKNYTDLRNDDNTKKSPITARTLETLIRLATAHAKVRLSKTVNKVDAKVAANLLRFALLGEDIGNDIDEEESEYEEALSKRSPQKSPKKRQRVRQPASNSGSPIKSTPRRSTASSVNATPSSARRILRFQDDEQNAGEDDNDIMSPLPADEEAELQRRLQLGLRVSPRRREHLHAPEEGSSGPLTEVGTPRLPNVSSAGQDDEQQQSVISFDNVEPGTISTGRLSLISGIIARLMQTEIFEEESYPVASLFERINEELPEEEKFSAQEYLAGLKIMSDRNNLMVADDKVWRV
B2: Mcm2 (natural protein, S. cerevisiae, UniProt P29469 1-868, looked up)
chain: MSDNRRRRREEDDSDSENELPPSSPQQHFRGGMNPVSSPIGSPDMINPEGDDNEVDDVPDIDEVEEQMNEVDLMDDNMYEDYAADHNRDRYDPDQVDDREQQELSLSERRRIDAQLNERDRLLRNVAYIDDEDEEQEGAAQLDEMGLPVQRRRRRRQYEDLENSDDDLLSDMDIDPLREELTLESLSNVKANSYSEWITQPNVSRTIARELKSFLLEYTDETGRSVYGARIRTLGEMNSESLEVNYRHLAESKAILALFLAKCPEEMLKIFDLVAMEATELHYPDYARIHSEIHVRISDFPTIYSLRELRESNLSSLVRVTGVVTRRTGVFPQLKYVKFNCLKCGSILGPFFQDSNEEIRISFCTNCKSKGPFRVNGEKTVYRNYQRVTLQEAPGTVPPGRLPRHREVILLADLVDVSKPGEEVEVTGIYKNNYDGNLNAKNGFPVFATIIEANSIKRREGNTANEGEEGLDVFSWTEEEEREFRKISRDRGIIDKIISSMAPSIYGHRDIKTAVACSLFGGVPKNVNGKHSIRGDINVLLLGDPGTAKSQILKYVEKTAHRAVFATGQGASAVGLTASVRKDPITKEWTLEGGALVLADKGVCLIDEFDKMNDQDRTSIHEAMEQQSISISKAGIVTTLQARCSIIAAANPNGGRYNSTLPLAQNVSLTEPILSRFDILCVVRDLVDEEADERLATFVVDSHVRSHPENDEDREGEELKNNGESAIEQGEDEINEQLNARQRRLQRQRKKEEEISPIPQELLMKYIHYARTKIYPKLHQMDMDKVSRVYADLRRESISTGSFPITVRHLESILRIAESFAKMRLSEFVSSYDLDRAIKVVVDSFVDAQKVSVRRQLRRSFAIYTLGH
B3: Mcm4 (natural protein, S. cerevisiae, UniProt P30665 1-933, looked up)
chain: MSQQSSSPTKEDNNSSSPVVPNPDSVPPQLSSPALFYSSSSSQGDIYGRNNSQNLSQGEGNIRAAIGSSPLNFPSSSQRQNSDVFQSQGRQGRIRSSASASGRSRYHSDLRSDRALPTSSSSLGRNGQNRVHMRRNDIHTSDLSSPRRIVDFDTRSGVNTLDTSSSSAPPSEASEPLRIIWGTNVSIQECTTNFRNFLMSFKYKFRKILDEREEFINNTTDEELYYIKQLNEMRELGTSNLNLDARNLLAYKQTEDLYHQLLNYPQEVISIMDQTIKDCMVSLIVDNNLDYDLDEIETKFYKVRPYNVGSCKGMRELNPNDIDKLINLKGLVLRSTPVIPDMKVAFFKCNVCDHTMAVEIDRGVIQEPARCERIDCNEPNSMSLIHNRCSFADKQVIKLQETPDFVPDGQTPHSISLCVYDELVDSCRAGDRIEVTGTFRSIPIRANSRQRVLKSLYKTYVDVVHVKKVSDKRLDVDTSTIEQELMQNKVDHNEVEEVRQITDQDLAKIREVAAREDLYSLLARSIAPSIYELEDVKKGILLQLFGGTNKTFTKGGRYRGDINILLCGDPSTSKSQILQYVHKITPRGVYTSGKGSSAVGLTAYITRDVDTKQLVLESGALVLSDGGVCCIDEFDKMSDSTRSVLHEVMEQQTISIAKAGIITTLNARSSILASANPIGSRYNPNLPVTENIDLPPPLLSRFDLVYLVLDKVDEKNDRELAKHLTNLYLEDKPEHISQDDVLPVEFLTMYISYAKEHIHPIITEAAKTELVRAYVGMRKMGDDSRSDEKRITATTRQLESMIRLAEAHAKMKLKNVVELEDVQEAVRLIRSAIKDYATDPKTGKIDMNLVQTGKSVIQRKLQEDLSREIMNVLKDQASDSMSFNELIKQINEHSQDRVESSDIQEALSRLQQEDKVIVLGEGVRRSVRLNNRV
B4: Mcm7 (natural protein, S. cerevisiae, UniProt P38132 1-845, looked up)
chain: MSAALPSIQLPVDYNNLFNEITDFLVTFKQDTLSSDATRNENEDENLDAENIEQHLLEKGPKYMAMLQKVANRELNSVIIDLDDILQYQNEKFLQGTQADDLVSAIQQNANHFTELFCRAIDNNMPLPTKEIDYKDDVLDVILNQRRLRNERMLSDRTNEIRSENLMDTTMDPPSSMNDALREVVEDETELFPPNLTRRYFLYFKPLSQNCARRYRKKAISSKPLSVRQIKGDFLGQLITVRGIITRVSDVKPAVEVIAYTCDQCGYEVFQEVNSRTFTPLSECTSEECSQNQTKGQLFMSTRASKFSAFQECKIQELSQQVPVGHIPRSLNIHVNGTLVRSLSPGDIVDVTGIFLPAPYTGFKALKAGLLTETYLEAQFVRQHKKKFASFSLTSDVEERVMELITSGDVYNRLAKSIAPEIYGNLDVKKALLLLLVGGVDKRVGDGMKIRGDINVCLMGDPGVAKSQLLKAICKISPRGVYTTGKGSSGVGLTAAVMKDPVTDEMILEGGALVLADNGICCIDEFDKMDESDRTAIHEVMEQQTISISKAGINTTLNARTSILAAANPLYGRYNPRLSPLDNINLPAALLSRFDILFLMLDIPSRDDDEKLAEHVTYVHMHNKQPDLDFTPVEPSKMREYIAYAKTKRPVMSEAVNDYVVQAYIRLRQDSKREMDSKFSFGQATPRTLLGIIRLSQALAKLRLADMVDIDDVEEALRLVRVSKESLYQETNKSKEDESPTTKIFTIIKKMLQETGKNTLSYENIVKTVRLRGFTMLQLSNCIQEYSYLNVWHLINEGNTLKFVDDGTMDTDQEDSLVSTPKLAPQTTASANVSAQDSDIDLQDA

The target in experiment [1] is Mcm6 (S. cerevisiae, UniProt P53091 1-1017). Description: co-IP.
For experiment [2], the target named is B1. Put plainly: co-IP.

Sequence of Mcm6 (P53091 whole entry): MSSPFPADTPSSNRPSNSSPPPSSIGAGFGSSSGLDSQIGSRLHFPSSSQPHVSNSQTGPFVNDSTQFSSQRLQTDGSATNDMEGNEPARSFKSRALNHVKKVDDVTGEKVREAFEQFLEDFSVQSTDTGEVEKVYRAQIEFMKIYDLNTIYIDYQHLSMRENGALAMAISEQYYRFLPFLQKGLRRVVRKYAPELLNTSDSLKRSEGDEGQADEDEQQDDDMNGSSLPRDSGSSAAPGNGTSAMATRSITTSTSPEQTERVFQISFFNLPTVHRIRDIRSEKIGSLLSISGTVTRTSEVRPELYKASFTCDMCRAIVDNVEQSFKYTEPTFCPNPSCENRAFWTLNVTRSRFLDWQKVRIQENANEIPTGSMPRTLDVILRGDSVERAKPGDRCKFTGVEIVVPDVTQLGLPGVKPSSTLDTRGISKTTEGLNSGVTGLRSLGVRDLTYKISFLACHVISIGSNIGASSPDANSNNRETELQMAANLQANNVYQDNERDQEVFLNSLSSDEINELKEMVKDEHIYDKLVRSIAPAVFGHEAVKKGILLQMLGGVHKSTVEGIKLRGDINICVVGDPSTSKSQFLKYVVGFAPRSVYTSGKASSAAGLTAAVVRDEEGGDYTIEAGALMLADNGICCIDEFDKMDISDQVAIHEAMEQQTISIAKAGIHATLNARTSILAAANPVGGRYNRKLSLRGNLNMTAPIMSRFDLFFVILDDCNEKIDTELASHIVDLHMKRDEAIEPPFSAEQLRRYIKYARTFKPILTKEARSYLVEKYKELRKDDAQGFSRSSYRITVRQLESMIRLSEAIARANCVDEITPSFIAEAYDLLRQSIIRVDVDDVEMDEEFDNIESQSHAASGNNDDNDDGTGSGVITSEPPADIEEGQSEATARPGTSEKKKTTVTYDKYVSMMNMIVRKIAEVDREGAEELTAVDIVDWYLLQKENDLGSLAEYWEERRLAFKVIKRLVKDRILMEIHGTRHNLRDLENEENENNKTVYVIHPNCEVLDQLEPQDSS

As to B1, the binding result in experiment [1] is reported as “binds”.
With B2, the binding result in experiment [2] is reported as “binds”.
Still for that read-out and setting: to B3 belongs “binds”.
On to B4, for which the binding result in experiment [2] is given as “binds”.

Values taken from publication PMC4156824 (Molecular cell, 2014).
